{"source": "paper PMC3425544", "about": "“The S100A10 Subunit of the Annexin A2 Heterotetramer Facilitates L2-Mediated Human Papillomavirus Infection” (PLoS ONE, 2012)", "key": {"annexin A2": {"test_system": "annexin A2", "test": "EPR binding of L2 peptide to annexin A2", "details": "scrambled competitor 5∶1", "procedure": "(§1) Recombinant annexin A2 was expressed in BL21(DE3) Escherichia coli cells and purified using reversible Ca^2+-dependent binding to negatively charged phospholipid vesicles followed by size exclusion chromatography. A pET23A vector containing the S100A10 sequence (a gift from Volker Gerke) was expressed in BL21(DE3) cells as previously described. Both proteins were stored at 4°C in 20 mM HEPES buffer at pH 7.4, containing 100 mM NaCl with the addition of 1 mM dithiothreitol. Concentrations of all proteins and peptides, including the A2t complex, were determined using bicinchoninic acid assays (Pierce Thermo Scientific, Rockford, IL) compared to measured absorbance of albumin standards at 562 nm. Purified annexin A2 and S100A10 were combined at a molar ratio of 1∶1 and concentrated to over 8 µg/µl. The mixture was incubated overnight at 4°C, and then loaded onto a superdex 200 10/300 GL (GE Healthcare USA) column equilibrated in the previously mentioned HEPES buffer. The eluted A2t peak was collected and subjected to peptide binding assays.\nThe L2_108–126 peptides used in our EPR studies were synthesized with a cysteine at the N-terminus, and followed by a spacer of 3 physiological amino acids (C-IVS) preceding the canonical L2_108–126 and L2 scrambled sequences (C-IVS-[…] and C-IVS-[…] respectively). Peptides were combined with 8× molar excess paramagnetic label (1-oxyl-2, 2, 5, 5-tetramethyl-Δ3-pyrroline-3-methyl) (R1) methanethiosulfonate (MTSL), (Toronto Research Chemicals, Canada) and left to react overnight at 4°C. Free label was removed by gel filtration (PD10 GE, United Kingdom). All peptides were solubilized into HEPES buffer. For competition assays, the scrambled peptide was non-paramagnetic labeled with an N-acetylated MTSL paramagnetic-label analog (1-acetyl-2,2,5,5- tetramethyl-Δ3-pyrroline-3-methyl) (R1′) at an 8× molar excess to emulate the paramagnetic label on control peptides. Binding interactions were examined by combining paramagnetically-labeled L2 peptide with A2t, BSA, ANXA2, or S100A10 (20 µM, 100 µM, 100 µM, 100 µM, and 100 µM respectively) in 10 µL volumes of the HEPES buffer, confined by glass capillaries, and measured at room temperature over a period of 24 hours using a Bruker EMX X-band EPR spectrometer. For the cysteine blocked S100A10, S100A10 was treated with R1′ and excess label was removed via gel filtration (see above) before the addition of paramagnetic labeled peptides. […] To quantify the amount of bound peptide spectra of all tested proteins in combination with the L2_108–126 or ScrL2 peptides were compared to the spectra of L2_108–126 or ScrL2 peptides alone in solution using a spectra analyzing software (EPR 130, University of California, Los Angeles). […]"}, "[1]": {"test_system": "A2t (annexin A2 heterotetramer)", "test": "EPR binding of L2 peptide to A2t", "design": "species or system human", "details": "scrambled competitor 5∶1 molar ratio", "excerpt": "Next, we wanted to determine if there was a specific interaction between the L2_108–126 peptide and A2t using electron paramagnetic resonance (EPR) spectroscopy. EPR is a method of magnetic resonance spectroscopy measuring unpaired electrons whose underlying basic concepts are not unlike the more widely used technique of nuclear magnetic resonance (NMR) (reviewed in [43]). When coupled with site-directed paramagnetic-labeling, such as the attachment of a moiety with an unpaired electron to a cysteine residue, EPR can be used to obtain structural information within a small vicinity of the paramagnetic-label’s positions along the protein sequence. As a paramagnetic-label becomes locally constrained, such as when bound to another protein, its spectra will drastically change as visualized by a decrease in line amplitude and increased line-broadening. Therefore, EPR provides an in vitro biochemical method that measures protein-protein interactions by monitoring changes in the spectra recorded for a labeled protein in different experimental settings.\nFor our purposes, an N-terminal cysteine (with a 3 native aa spacer) contained in the L2_108–126 peptide (C-IVS-[…]) was paramagnetic-labeled (an unpaired-electron-containing small molecule was cross-linked via a disulfide bond to the peptide), and its spectra were analyzed after incubation with and without purified human recombinant A2t or controls. […]\nRecombinant annexin A2 was expressed in BL21(DE3) Escherichia coli cells and purified using reversible Ca^2+-dependent binding to negatively charged phospholipid vesicles followed by size exclusion chromatography. […] Concentrations of all proteins and peptides, including the A2t complex, were determined using bicinchoninic acid assays (Pierce Thermo Scientific, Rockford, IL) compared to measured absorbance of albumin standards at 562 nm. […]"}, "S100A10 subunit of A2t": {"test_system": "S100A10 subunit of A2t", "test": "EPR binding of L2 peptide to S100A10", "details": "EPR", "procedure": "as §1\nThe L2_108–126 peptides used in our EPR studies were synthesized with a cysteine at the N-terminus, and followed by a spacer of 3 physiological amino acids (C-IVS) preceding the canonical L2_108–126 and L2 scrambled sequences (C-IVS-[…] and C-IVS-[…] respectively). Peptides were combined with 8× molar excess paramagnetic label (1-oxyl-2, 2, 5, 5-tetramethyl-Δ3-pyrroline-3-methyl) (R1) methanethiosulfonate (MTSL), (Toronto Research Chemicals, Canada) and left to react overnight at 4°C. Free label was removed by gel filtration (PD10 GE, United Kingdom). All peptides were solubilized into HEPES buffer. For competition assays, the scrambled peptide was non-paramagnetic labeled with an N-acetylated MTSL paramagnetic-label analog (1-acetyl-2,2,5,5- tetramethyl-Δ3-pyrroline-3-methyl) (R1′) at an 8× molar excess to emulate the paramagnetic label on control peptides. Binding interactions were examined by combining paramagnetically-labeled L2 peptide with A2t, BSA, ANXA2, or S100A10 (20 µM, 100 µM, 100 µM, 100 µM, and 100 µM respectively) in 10 µL volumes of the HEPES buffer, confined by glass capillaries, and measured at room temperature over a period of 24 hours using a Bruker EMX X-band EPR spectrometer. For the cysteine blocked S100A10, S100A10 was treated with R1′ and excess label was removed via gel filtration (see above) before the addition of paramagnetic labeled peptides. The experiments were done in triplicate with measurements taken at 12 db, in 5 scan intervals. All spectra were normalized to the same number of scans. To quantify the amount of bound peptide spectra of all tested proteins in combination with the L2_108–126 or ScrL2 peptides were compared to the spectra of L2_108–126 or ScrL2 peptides alone in solution using a spectra analyzing software (EPR 130, University of California, Los Angeles). By subtracting the alone peptide spectra from that of the combined samples we derive the spectra of the bound spectra, and based on double integration, relate this spectra to a concentration of the peptide that bound to the target protein."}, "[2]": {"test_system": "HPV16 infection of COS-1 cells", "details": "pre-incubation, compared to control peptides; ref [28]; cited from earlier work", "excerpt": "Though the interaction between L1 and HSPG appears to be the primary initiator of epithelial cell infection, the electrostatic interaction to the negatively charged polysaccharides is generally thought to be non-specific, and may lead to a cascade of subsequent capsid conformational changes."}, "[3]": {"target": "T1, annexin A2 heterotetramer (A2t), purified human recombinant (human, UniProt P07355 1-339; P60903 1-97)", "T1 sequence (P07355 whole entry, chain 1 of 2)": "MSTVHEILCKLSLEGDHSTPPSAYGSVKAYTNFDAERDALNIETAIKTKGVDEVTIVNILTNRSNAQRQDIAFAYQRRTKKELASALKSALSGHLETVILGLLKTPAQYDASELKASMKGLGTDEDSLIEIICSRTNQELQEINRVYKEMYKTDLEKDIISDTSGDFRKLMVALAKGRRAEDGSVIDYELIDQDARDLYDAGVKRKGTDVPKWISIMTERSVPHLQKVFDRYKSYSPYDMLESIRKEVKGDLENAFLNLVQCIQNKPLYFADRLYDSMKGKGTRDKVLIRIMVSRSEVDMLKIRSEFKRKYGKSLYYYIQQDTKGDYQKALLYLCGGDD", "T1 sequence (P60903 whole entry, chain 2 of 2)": "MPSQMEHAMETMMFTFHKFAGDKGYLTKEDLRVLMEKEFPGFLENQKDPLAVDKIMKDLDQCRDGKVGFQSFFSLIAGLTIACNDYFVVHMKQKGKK", "test": "cell-based or functional assay"}, "recombinant annexin A2 [4]": {"target": "T2, recombinant annexin A2 (human, UniProt P07355 1-339)", "T2 construct": "also called ANXA2; annexin A2 subunit", "T2 sequence (P07355 whole entry)": "as the sequence (P07355 whole entry, chain 1 of 2) above", "test": "electron paramagnetic resonance (EPR) spectroscopy", "details": "both partners purified"}, "[5]": {"target": "T1, annexin A2 heterotetramer (A2t), …", "test": "electron paramagnetic resonance (EPR) spectroscopy", "details": "both partners purified"}, "recombinant S100A10 [6]": {"target": "T3, recombinant S100A10 (human, UniProt P60903 1-97)", "T3 construct": "also called S100A10 subunit; p11; source: E. coli BL21(DE3), pET23A vector, purified", "T3 sequence (P60903 whole entry)": "as the sequence (P60903 whole entry, chain 2 of 2) above", "test": "electron paramagnetic resonance (EPR) spectroscopy", "details": "both partners purified"}, "recombinant annexin A2 [7]": {"target": "T2, recombinant annexin A2", "test": "electron paramagnetic resonance (EPR) spectroscopy; paramagnetic-labeled peptide (20 µM) mixed with protein (100 µM) in 10 µL HEPES buffer (20 mM HEPES pH 7.4, 100 mM NaCl) in glass capillaries, room temperature; percent bound from subtraction of the free-peptide spectrum and double integration; 'relative' binding constant K = [AB]/[A][B]", "details": "both partners purified"}, "[8]": {"target": "T1, annexin A2 heterotetramer (A2t), …", "test": "electron paramagnetic resonance (EPR) spectroscopy; paramagnetic-labeled peptide (20 µM) mixed with protein (100 µM) in 10 µL HEPES buffer (20 mM HEPES pH 7.4, 100 mM NaCl) in glass capillaries, room temperature; percent bound from subtraction of the free-peptide spectrum and double integration; 'relative' binding constant K = [AB]/[A][B]", "details": "both partners purified"}, "[9]": {"target": "T4, cysteine-blocked S100A10 (αCys-S100A10) (human, UniProt P60903 1-97)", "T4 construct": "source: E. coli BL21(DE3), purified, then treated with R1′ and gel filtered", "T4 sequence (P60903 whole entry)": "as the sequence (P60903 whole entry, chain 2 of 2) above", "test": "electron paramagnetic resonance (EPR) spectroscopy; paramagnetic-labeled peptide (20 µM) mixed with protein (100 µM) in 10 µL HEPES buffer (20 mM HEPES pH 7.4, 100 mM NaCl) in glass capillaries, room temperature; percent bound from subtraction of the free-peptide spectrum and double integration; 'relative' binding constant K = [AB]/[A][B]", "details": "both partners purified"}, "recombinant S100A10 [10]": {"target": "T3, recombinant S100A10", "test": "electron paramagnetic resonance (EPR) spectroscopy; paramagnetic-labeled peptide (20 µM) mixed with protein (100 µM) in 10 µL HEPES buffer (20 mM HEPES pH 7.4, 100 mM NaCl) in glass capillaries, room temperature; percent bound from subtraction of the free-peptide spectrum and double integration; 'relative' binding constant K = [AB]/[A][B]", "details": "both partners purified"}}, "note": "No end group written: not given here."}
{"molecule": "C-IVS-IESPVSDTALGTPEIFVSA [ScrL2, scrambled version of the L2_108–126 peptide, reference compound]", "values": [{"measurement": "competition for L2 peptide – annexin A2 interaction", "setting": "annexin A2", "result": "partially competed off"}, {"measurement": "competition for L2_108–126 – A2t interaction", "setting": "[1]", "result": "No significant changes in spectra signal were observed"}, {"measurement": "relative % bound to cysteine-blocked S100A10", "setting": "S100A10 subunit of A2t; S100A10 cysteine-blocked with R1′ (αCys-S100A10), paramagnetic-labeled peptide, mean of three separate experiments", "result": 6.3, "unit": "%"}, {"measurement": "competition for L2 peptide – S100A10 interaction", "setting": "S100A10 subunit of A2t; scrambled competitor 5∶1", "result": "minimally competed off"}]}
{"molecule": "L2_108–120: L2_108–120 peptide of ref 28 (LVEETSFIDAGAP; UniProt P03107 108-120, looked up, fragment)", "values": [{"measurement": "reduction of infection of COS-1 cells", "setting": "[2]", "result": "approximately 60%"}]}
{"molecule": "HPV16 L1–L2(GGDD) mutant pseudovirions (complex, human papillomavirus type 16) chain 1: MSLWLPSEATVYLPPVPVSKVVSTDEYVARTNIYYHAGTSRLLAVGHPYFPIKKPNNNKILVPKVSGLQYRVFRIHLPDPNKFGFPDTSFYNPDTQRLVWACVGVEVGRGQPLGVGISGHPLLNKLDDTENASAYAANAGVDNRECISMDYKQTQLCLIGCKPPIGEHWGKGSPCTNVAVNPGDCPPLELINTVIQDGDMVDTGFGAMDFTTLQANKSEVPLDICTSICKYPDYIKMVSEPYGDSLFFYLRREQMFVRHLFNRAGAVGENVPDDLYIKGSGSTANLASSNYFPTPSGSMVTSDAQIFNKPYWLQRAQGHNNGICWGNQLFVTVVDTTRSTNMSLCAAISTSETTYKNTNFKEYLRHGEEYDLQFIFQLCKITLTADVMTYIHSMNSTILEDWNFGLQPPPGGTLEDTYRFVTSQAIACQKHTPPAPKEDPLKKYTFWEVNLKEKFSADLDQFPLGRKFLLQAGLKAKPKFTLGKRKATPTTSSTSTTAKRKKRKL chain 2: MRHKRSAKRTKRASATQLYKTCKQAGTCPPDIIPKVEGKTIAEQILQYGSMGVFFGGLGIGTGSGTGGRTGYIPLGTRPPTATDTLAPVRPPLTVDPVGPSDPSIVSGGDDTSFIDAGAPTSVPSIPPDVSGFSITTSTDTTPAILDINNTVTTVTTHNNPTFTDPSVLQPPTPAETGGHFTLSSSTISTHNYEEIPMDTFIVSTNPNTVTSSTPIPGSRPVARLGLYSRTTQQVKVVDPAFVTTPTKLITYDNPAYEGIDVDNTLYFSSNDNSINIAPDPDFLDIVALHRPALTSRRTGIRYSRIGNKQTLRTRSGKSIGAKVHYYYDLSTIDPAEEIELQTITPSTYTTTSHAASPTSINNGLYDIYADDFITDTSTTPVPSVPSTSLSGYIPANTTIPFGGAYNIPLVSGPDIPINITDQAPSLIPIVPGSPQYTIIADAGDFYLHPSYYMLRKRRKRLPYFFSDVSLAA", "values": [{"measurement": "pseudo-infection of HaCaT cells (percent GFP-positive, 48 h) by the mutant PsV against wild-type PsV", "setting": "[3]", "result": "> 10", "unit": "fold reduction"}]}
{"molecule": "CIVSLVEETSFIDAGAPTSVPSI (also: paramagnetic label, site not given here, source: synthetic peptide (Synthetic Biomolecules or Biomer Technology), HPLC purified to >95%)", "note": "[HPV16 L2_(108–126) peptide, paramagnetic-labeled (C-IVS-LVEETSFIDAGAPTSVPSI)]", "values": [{"measurement": "percent of peptide bound with ScrL2 at 5:1", "setting": "recombinant annexin A2 [4]", "result": 17.7, "unit": "%"}, {"measurement": "percent of peptide bound with ScrL2 at 5:1", "setting": "[5]", "result": 75.8, "unit": "%"}, {"measurement": "percent of peptide bound with ScrL2 at 5:1", "setting": "recombinant S100A10 [6]", "result": 91, "unit": "%"}, {"measurement": "percent of peptide bound", "setting": "recombinant annexin A2 [7]", "result": 23.6, "unit": "%"}, {"measurement": "Ka", "setting": "[8]", "result": 100000, "unit": "M⁻¹"}, {"measurement": "percent of peptide bound", "setting": "[8]", "result": 78, "unit": "%"}, {"measurement": "percent of peptide bound", "setting": "[9]", "result": 73.1, "unit": "%"}, {"measurement": "Ka", "setting": "recombinant S100A10 [10]", "result": 150000, "unit": "M⁻¹"}, {"measurement": "percent of peptide bound", "setting": "recombinant S100A10 [10]", "result": 92.5, "unit": "%"}]}
